According to patent US20200079833A1 (AstraZeneca / MedImmune, published 2020):
Starred links: 1 amine or outer side, 2 acyl side, 3 side chain; linkers in the order of their positions; H or OH if unused. Non-standard residues stand in square brackets, D forms with d. Groups on a side chain read outwards from the residue. Primed or numbered codes have the meaning given here. No end group written: not given here. *: point of attachment. γGlu = O=C(O)[C@H](CCC(=O)[*:2])N[*:1]; Stearoyl = CCCCCCCCCCCCCCCCCC(=O)*; Palmitoyl = CCCCCCCCCCCCCCCC(=O)*; αMeF = C[C@](N)(Cc1ccccc1)C(=O)O; αMeK = C[C@](N)(CCCCN)C(=O)O; αMeS = C[C@](N)(CO)C(=O)O; PEG2′ = not defined here; Aib = CC(C)(N)C(=O)O

T1: glucose-dependent insulinotropic peptide (gastric inhibitory polypeptide) receptor (human, UniProt P48546 22-466)
T1 sequence (looked up): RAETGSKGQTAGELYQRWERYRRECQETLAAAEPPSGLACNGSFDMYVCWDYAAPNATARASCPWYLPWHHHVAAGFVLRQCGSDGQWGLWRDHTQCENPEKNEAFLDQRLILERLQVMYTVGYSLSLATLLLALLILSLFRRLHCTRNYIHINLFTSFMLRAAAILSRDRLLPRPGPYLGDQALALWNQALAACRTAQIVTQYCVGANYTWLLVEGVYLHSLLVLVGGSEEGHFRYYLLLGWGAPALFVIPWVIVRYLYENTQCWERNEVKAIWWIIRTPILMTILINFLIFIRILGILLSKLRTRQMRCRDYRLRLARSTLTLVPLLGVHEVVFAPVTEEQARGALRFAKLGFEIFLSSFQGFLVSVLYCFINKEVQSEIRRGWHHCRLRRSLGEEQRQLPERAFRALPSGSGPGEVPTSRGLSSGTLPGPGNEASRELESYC


Legend:
Assay in all cases: cell-based or functional assay
GLP-1 receptor = GLP-1 receptor (human, UniProt P43220 24-463)
glucagon receptor = glucagon receptor (human, UniProt P47871 26-477)
glucagon receptor, sequence (P47871 26-477): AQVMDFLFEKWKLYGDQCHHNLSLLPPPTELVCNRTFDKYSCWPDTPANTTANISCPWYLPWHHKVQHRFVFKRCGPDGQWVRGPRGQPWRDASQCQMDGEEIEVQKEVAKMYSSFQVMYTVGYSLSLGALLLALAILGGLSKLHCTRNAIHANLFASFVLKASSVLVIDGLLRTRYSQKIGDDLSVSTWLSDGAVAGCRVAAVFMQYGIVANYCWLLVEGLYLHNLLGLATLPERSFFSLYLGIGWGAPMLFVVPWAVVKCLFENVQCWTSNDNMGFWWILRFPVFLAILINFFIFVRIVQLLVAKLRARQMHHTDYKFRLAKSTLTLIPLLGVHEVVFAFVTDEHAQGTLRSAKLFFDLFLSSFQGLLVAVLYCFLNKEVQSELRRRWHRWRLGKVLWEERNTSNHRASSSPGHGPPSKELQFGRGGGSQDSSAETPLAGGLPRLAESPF

[1] = target: T1, glucose-dependent insulinotropic …

Primary assay EC50 (cAMP), Mean pM GLP-1R (GLP-1 receptor) [pM] | Primary assay EC50 (cAMP), n1 (GLP-1 receptor) [nM] | Primary assay EC50 (cAMP), n2 (GLP-1 receptor) [nM] | Primary assay EC50 (cAMP), n1 (glucagon receptor) [nM] | Primary assay EC50 (cAMP), n2 (glucagon receptor) [nM] | Primary assay EC50 (cAMP), n1 [1] [nM] | Primary assay EC50 (cAMP), n2 [1] [nM] | Binder
18.8 | 0.0221 | 0.0155 | 25 | 25 | 25 | 25 | H[Aib]EGS[αMeF]TSDV[αMeS]S[αMeF]LEGEAA[αMeK]EFIK([PEG2′-PEG2′-γGlu-Stearoyl])WVVEGG-NH2 [SEQ ID NO 68]
83 | 0.074 | 0.092 | 27 | 27 | 27 | 27 | H[Aib]EGS[αMeF]TSDV[αMeS]S[αMeF]LEGEAA[αMeK]E[αMeF]IA[αMeF]VV[αMeK]GK([γGlu-Palmitoyl])-NH2 (N-terminus assumed; SMILES CCCCCCCCCCCCCCCC(=O)N[C@@H](CCC(=O)NCCCC[C@H](NC(=O)CNC(=O)[C@](C)(CCCCN)NC(=O)[C@@H](NC(=O)[C@@H](NC(=O)[C@](C)(Cc1ccccc1)NC(=O)[C@H](C)NC(=O)[C@@H](NC(=O)[C@](C)(Cc1ccccc1)NC(=O)[C@H](CCC(=O)O)NC(=O)[C@](C)(CCCCN)NC(=O)[C@H](C)NC(=O)[C@H](C)NC(=O)[C@H](CCC(=O)O)NC(=O)CNC(=O)[C@H](CCC(=O)O)NC(=O)[C@H](CC(C)C)NC(=O)[C@](C)(Cc1ccccc1)NC(=O)[C@H](CO)NC(=O)[C@](C)(CO)NC(=O)[C@@H](NC(=O)[C@H](CC(=O)O)NC(=O)[C@H](CO)NC(=O)[C@@H](NC(=O)[C@](C)(Cc1ccccc1)NC(=O)[C@H](CO)NC(=O)CNC(=O)[C@H](CCC(=O)O)NC(=O)C(C)(C)NC(=O)[C@@H](N)Cc1c[nH]cn1)[C@@H](C)O)C(C)C)[C@@H](C)CC)C(C)C)C(C)C)C(N)=O)C(=O)O) [SEQ ID NO 70]
7.1 | 0.0062 | 0.008 | 27 | 27 | 27 | 27 | H[Aib]EGS[αMeF]TSDV[αMeS]S[αMeF]LEGEAA[αMeK]E[αMeF]IA[αMeF]VV[αMeK]K([γGlu-Palmitoyl])G-NH2 (N-terminus assumed; SMILES CCCCCCCCCCCCCCCC(=O)N[C@@H](CCC(=O)NCCCC[C@H](NC(=O)[C@](C)(CCCCN)NC(=O)[C@@H](NC(=O)[C@@H](NC(=O)[C@](C)(Cc1ccccc1)NC(=O)[C@H](C)NC(=O)[C@@H](NC(=O)[C@](C)(Cc1ccccc1)NC(=O)[C@H](CCC(=O)O)NC(=O)[C@](C)(CCCCN)NC(=O)[C@H](C)NC(=O)[C@H](C)NC(=O)[C@H](CCC(=O)O)NC(=O)CNC(=O)[C@H](CCC(=O)O)NC(=O)[C@H](CC(C)C)NC(=O)[C@](C)(Cc1ccccc1)NC(=O)[C@H](CO)NC(=O)[C@](C)(CO)NC(=O)[C@@H](NC(=O)[C@H](CC(=O)O)NC(=O)[C@H](CO)NC(=O)[C@@H](NC(=O)[C@](C)(Cc1ccccc1)NC(=O)[C@H](CO)NC(=O)CNC(=O)[C@H](CCC(=O)O)NC(=O)C(C)(C)NC(=O)[C@@H](N)Cc1c[nH]cn1)[C@@H](C)O)C(C)C)[C@@H](C)CC)C(C)C)C(C)C)C(=O)NCC(N)=O)C(=O)O) [SEQ ID NO 71]

The remaining lines, values behind:

Binder | Primary assay EC50 (cAMP), Mean pM GLP-1R (GLP-1 receptor) [pM] | Primary assay EC50 (cAMP), n1 (GLP-1 receptor) [nM] | Primary assay EC50 (cAMP), n2 (GLP-1 receptor) [nM] | Primary assay EC50 (cAMP), n1 (glucagon receptor) [nM] | Primary assay EC50 (cAMP), n2 (glucagon receptor) [nM] | Primary assay EC50 (cAMP), n1 [1] [nM] | Primary assay EC50 (cAMP), n2 [1] [nM]
H[Aib]EGS[αMeF]TSDV[αMeS]S[αMeF]LEGEAAKEFIK([PEG2′-PEG2′-γGlu-Stearoyl])WVVEGG-NH2 [SEQ ID NO 65] | 16.9 | 0.0197 | 0.014 | 25.1 | 25.1 | 25.1 | 25.1
H[Aib]EGS[αMeF]TSDV[αMeS]S[αMeF]LEGEAA[αMeK]E[αMeF]IA[αMeF]VVK([γGlu-Palmitoyl])GG-NH2 (N-terminus assumed; SMILES CCCCCCCCCCCCCCCC(=O)N[C@@H](CCC(=O)NCCCC[C@H](NC(=O)[C@@H](NC(=O)[C@@H](NC(=O)[C@](C)(Cc1ccccc1)NC(=O)[C@H](C)NC(=O)[C@@H](NC(=O)[C@](C)(Cc1ccccc1)NC(=O)[C@H](CCC(=O)O)NC(=O)[C@](C)(CCCCN)NC(=O)[C@H](C)NC(=O)[C@H](C)NC(=O)[C@H](CCC(=O)O)NC(=O)CNC(=O)[C@H](CCC(=O)O)NC(=O)[C@H](CC(C)C)NC(=O)[C@](C)(Cc1ccccc1)NC(=O)[C@H](CO)NC(=O)[C@](C)(CO)NC(=O)[C@@H](NC(=O)[C@H](CC(=O)O)NC(=O)[C@H](CO)NC(=O)[C@@H](NC(=O)[C@](C)(Cc1ccccc1)NC(=O)[C@H](CO)NC(=O)CNC(=O)[C@H](CCC(=O)O)NC(=O)C(C)(C)NC(=O)[C@@H](N)Cc1c[nH]cn1)[C@@H](C)O)C(C)C)[C@@H](C)CC)C(C)C)C(C)C)C(=O)NCC(=O)NCC(N)=O)C(=O)O) [SEQ ID NO 72] | 49 | 0.046 | 0.052 | 28 | 28 | 28 | 28
H[Aib]EGS[αMeF]TSDV[αMeS]S[αMeF]LEGEAAAEFIK([PEG2′-PEG2′-γGlu-Stearoyl])WVVEGG-NH2 [SEQ ID NO 69] | 53 | 0.0661 | 0.0399 | 25.5 | 25.5 | 25.5 | 25.5
H[Aib]EGS[αMeF]TSDV[αMeS]S[αMeF]LEGEAA[Aib]EFIK([PEG2′-PEG2′-γGlu-Stearoyl])WVVEGG-NH2 [SEQ ID NO 67] | 60.1 | 0.0721 | 0.048 | 25.4 | 25.4 | 25.4 | 25.4
H[Aib]EGS[αMeF]TSDVSK([PEG2′-PEG2′-PEG2′-Stearoyl])YLEGEAA[αMeK]E[αMeF]IA[αMeF]VVEGG-NH2 [SEQ ID NO 64] | 1.3 | 0.0014 | 0.0012 | 25 | 25 | 25 | 25
H[Aib]EGS[αMeF]TSDV[αMeS]S[αMeF]LEGEAAEEFIK([PEG2′-PEG2′-γGlu-Stearoyl])WVVEGG-NH2 [SEQ ID NO 66] | 150 | 0.203 | 0.0979 | 25.1 | 25.1 | 25.1 | 25.1
H[Aib]EGS[αMeF]SSEVSS[αMeF]LEGEAA[αMeK]E[αMeF]IA[αMeF]VV[αMeK]GG-NH2 (N-terminus assumed; SMILES CC[C@H](C)[C@H](NC(=O)[C@](C)(Cc1ccccc1)NC(=O)[C@H](CCC(=O)O)NC(=O)[C@](C)(CCCCN)NC(=O)[C@H](C)NC(=O)[C@H](C)NC(=O)[C@H](CCC(=O)O)NC(=O)CNC(=O)[C@H](CCC(=O)O)NC(=O)[C@H](CC(C)C)NC(=O)[C@](C)(Cc1ccccc1)NC(=O)[C@H](CO)NC(=O)[C@H](CO)NC(=O)[C@@H](NC(=O)[C@H](CCC(=O)O)NC(=O)[C@H](CO)NC(=O)[C@H](CO)NC(=O)[C@](C)(Cc1ccccc1)NC(=O)[C@H](CO)NC(=O)CNC(=O)[C@H](CCC(=O)O)NC(=O)C(C)(C)NC(=O)[C@@H](N)Cc1c[nH]cn1)C(C)C)C(=O)N[C@@H](C)C(=O)N[C@@](C)(Cc1ccccc1)C(=O)N[C@H](C(=O)N[C@H](C(=O)N[C@@](C)(CCCCN)C(=O)NCC(=O)NCC(N)=O)C(C)C)C(C)C) [SEQ ID NO 9] | 1200 | 1.2 | 1.2 | 29 | 29 | 29 | 29
